According to PMC11468790, “New Bacterial Aryl Sulfotransferases: Effective Tools for Sulfation of Polyphenols” (Journal of Agricultural and Food Chemistry, 2024):

Substrate: O=[N+]([O-])c1ccc(OS(=O)(=O)O)cc1
Experiment: purified protein
Format: biochemical, Escherichia coli
Details: varied donor pNPS 0.02-50 mM, acceptor phenol (5-200 mM), 30 °C, activity buffer Tris-glycine pH 8.9

B1: EcAST (Escherichia coli CFT073) (protein)
chain: AGFKPAPPAGQLGAVIVDPYGNAPLTALVDLDSHVISDVKVTVHGKGEKGVEISYPVGQESLKTYDGVPIFGLYQKFANKVTVEWKENGKVMKDDYVVHTSAIVNNYMDNRSISDLQQTKVIKVAPGFEDRLYLVNTHTFTAQGSDLHWHGEKDKNAGILDAGPATGALPFDIAPFTFIVDTEGEYRWWLDQDTFYDGRDRDINKRGYLMGIRETPRGTFTAVQGQHWYEFDMMGQVLEDHKLPRGFADATHESIETPNGTVLLRVGKSNYRRDDGVHVTTIRDHILEVDKSGRVVDVWDLTKILDPKRDALLGALDAGAVCVNVDLAHAGQQAKLEPDTPFGDALGVGPGRNWAHVNSIAYDAKDDSIILSSRHQGVVKIGRDKQVKWILAPSKGWEKPLASKLLKPVDANGKPITCNENGLCENSDFDFTYTQHTAWISSKGTLTIFDNGDGRHLEQPALPTMKYSRFVEYKIDEKKGTVQQVWEYGKERGYDFYSPITSIIEYQADRNTMFGFGGSIHLFDVGQPTVGKLNEIDYKTKEVKVEIDVLSDKPNQTHYRALLVRPQQMFK
notes: C-terminal His6 tag, pET-26b(+) NcoI/SacI, E. coli BL21(DE3)pLysS, IMAC, ca. 70 kDa
B1 gave a Km of 710 ± 30 µM, a kcat of 41.1 ± 0.5 s⁻¹ and a kcat/Km of 57000 M⁻¹ s⁻¹.
